This is an account of results in patent publication US7067474B1, “Agents for treating human illnesses based on β-catenin, and the production and use thereof” (Max-Delbruck-Centrum fur Molekulare Medizin, priority 1998, dated 2006).

Entries after “also recorded” stand apart in the source; their conditions may differ.

The target of assay [1] is conductin amino acids Ala342-Arg465 fused to Lex-A (vector BTM 116) (UniProt P0A7C2). Put plainly: yeast 2-hybrid, β-galactosidase reporter; percent of wild type β-catenin.
The target in assay [2] is T1, APC (15 amino acid repeats) (Homo sapiens, UniProt P25054).
T1 construct: of human APC for the amino acids His1012–Glu1215 (APC 15 amino acid repeats); expressed in transfected cells; host or cells: yeast (two-hybrid, Matchmaker, Clontech)
T1 sequence (P25054 1006-1209 limits assumed): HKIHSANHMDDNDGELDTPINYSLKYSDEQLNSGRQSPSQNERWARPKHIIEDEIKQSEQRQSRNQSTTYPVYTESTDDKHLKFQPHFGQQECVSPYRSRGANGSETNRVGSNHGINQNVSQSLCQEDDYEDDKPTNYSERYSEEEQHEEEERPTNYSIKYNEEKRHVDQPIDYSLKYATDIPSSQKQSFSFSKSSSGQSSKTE
Put plainly: yeast 2-hybrid: interaction of β-catenin mutants with APC 15 amino acid repeats. Format: binding. Conditions: yeast 2-hybrid, alanine mutants. The procedure:
(§1) The mutagenesis of β-catenin in the armadillo repeats 3–8 was carried out by means of the “mutagenesis kit” of the company Clontech according to the producer's record and the mutants were checked by sequencing (FIG. 5). In all mutants the original amino acid was substituted by alanine. For analyzing the interactions the cDNA of human β-catenin (armadillo repeat 3 up to the C-terminal end of the protein) coding for the amino acids Leu218–Leu7 μl or its mutants was cloned into the fusion vector for the activation domain of Gal-4 (pGAD424, Clontech). The cDNA for the binding domains of the interaction partners was cloned into the Lex-A fusion vector BTM 116. To this end, the cDNA of LEF-1 for the amino acids 1–99, conductin for the amino acids Ala342–ARG465; of human APC for the amino acids His1012–Glu1215 (APC 15 amino acid repeats) and for the amino acids Ser1259Asp 1400 (APC 20 amino acid repeats) and E-cadherin for the amino acids Gin773–Asp884 (cytoplasmatic domain) were amplified with the respective primers PCR. The interaction of the Lex-A hybrids with β-catenin and its mutants was quantified by means of the β-galactosidase reporter activity in the yeast 2-hybrid system (report: “Matchmaker”. Clontech) (Tab. 2 and FIG. 6).

The next assay concerns the target T2, LEF-1 (Mus musculus, UniProt P27782).
T2 construct: the cDNA of LEF-1 for the amino acids 1–99; expressed in transfected cells; host or cells: yeast (two-hybrid, Matchmaker, Clontech)
Description: yeast 2-hybrid: interaction of β-catenin mutants with LEF-1. Format: binding. The procedure:
as §1

The target in a further assay is T3, conductin (Mus musculus, UniProt O88566).
T3 construct: conductin for the amino acids Ala342–ARG465; expressed in transfected cells; host or cells: yeast (two-hybrid, Matchmaker, Clontech)
Put plainly: yeast 2-hybrid: interaction of β-catenin mutants with conductin. Conditions: for Interaction With Conductin, share of wild type β-catenin interaction: yeast 2-hybrid, alanine mutants. Format: binding. The method, then:
as §1

The target in assay [3] is T4, APC (20 amino acid repeats) (Homo sapiens, UniProt P25054).
T4 construct: for the amino acids Ser1259Asp 1400 (APC 20 amino acid repeats); expressed in transfected cells; host or cells: yeast (two-hybrid, Matchmaker, Clontech)
T4 sequence (P25054 1253-1394 limits assumed): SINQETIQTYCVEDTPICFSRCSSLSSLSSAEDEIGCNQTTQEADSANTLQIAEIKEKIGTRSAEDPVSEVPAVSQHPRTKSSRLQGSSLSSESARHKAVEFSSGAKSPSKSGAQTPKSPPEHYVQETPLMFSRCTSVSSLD
Description: yeast 2-hybrid: interaction of β-catenin mutants with APC 20 amino acid repeats. Format: binding. Conditions: yeast 2-hybrid, alanine mutants. The method, then: as §1

T2 sequence (P27782 1-99): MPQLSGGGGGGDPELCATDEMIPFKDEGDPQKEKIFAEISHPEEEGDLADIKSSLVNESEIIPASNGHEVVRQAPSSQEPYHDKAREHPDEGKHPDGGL
T3 sequence (O88566 343-465 limits assumed): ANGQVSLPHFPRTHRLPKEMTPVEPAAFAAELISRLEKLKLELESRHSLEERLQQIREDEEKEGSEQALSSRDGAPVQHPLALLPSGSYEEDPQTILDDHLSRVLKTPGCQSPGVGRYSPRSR
Sequence of conductin amino acids Ala342-Arg465 fused to Lex-A (vector BTM 116) (P0A7C2 other isoform, or with tags, fused parts or gaps limits assumed, form in doubt): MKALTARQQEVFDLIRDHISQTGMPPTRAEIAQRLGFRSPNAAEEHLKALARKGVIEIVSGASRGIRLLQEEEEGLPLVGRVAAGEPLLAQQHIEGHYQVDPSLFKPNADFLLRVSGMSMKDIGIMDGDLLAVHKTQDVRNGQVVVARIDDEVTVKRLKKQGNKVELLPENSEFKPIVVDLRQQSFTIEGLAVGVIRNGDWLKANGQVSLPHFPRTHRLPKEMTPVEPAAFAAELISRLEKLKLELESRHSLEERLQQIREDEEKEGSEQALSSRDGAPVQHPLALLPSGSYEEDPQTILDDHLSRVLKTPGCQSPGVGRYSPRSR

In assay [1], “human β-catenin (Leu218-Leu781) mutant Arg 457 to alanine, Gal-4 activation domain fusion (from UniProt P35222 218-781)” returned a share of the interaction with wild type β-catenin in percent of 36%.

As for “human β-catenin (Leu218-Leu781) mutant Lys 394 to alanine, Gal-4 activation domain fusion (from UniProt P35222 218-781)”, in assay [1], the share of the interaction with wild type β-catenin in percent worked out at 42%.

B1: Arg 469: human β-catenin mutant, Arg 469 substituted by alanine (arm 8) (protein)
chain: LHNLSHHREGLLAIFKSGGIPALVKMLGSPVDSVLFYAITTLHNLLLHQEGAKMAVRLAGGLQKMVALLNKTNVKFLAITTDCLQILAYGNQESKLIILASGGPQALVNIMRTYTYEKLLWTTSRVLKVLSVCSSNKPAIVEAGGMQALGLHLTDPSQRLVQNCLWTLRNLSDAATKQEGMEGLLGTLVQLLGSDDINVVTCAAGILSNLTCNNYKNKMMVCQVGGIEALVRTVLRAGDREDITEPAICALAHLTSRHQEAEMAQNAVRLHYGLPVVVKLLHPPSHWPLIKATVGLIRNLALCPANHAPLREQGAIPRLVQLLVRAHQDTQRRTSMGGTQQQFVEGVRMEEIVEGCTGALHILARDVHNRIVIRGLNTIPLFVQLLYSPIENIQRVAAGVLCELAQDKEAAEAIEAEGATAPLTELLHSRNEGVATYAAAVLFRMSEDKPQDYKKRLSVELTSSLFRTEPMAWNETADLGLDIGAQGEPLGYRQDDPSYRSFHSGGYGQDALGMDPMMEHEMGGHHPGADYPVDGLPDLGHAQDLMDGLPPGDSNQLAWFDTDL
modifications: left off: large carriers; small tags and cut ends
As to B1, the “Interaction With APC-15, share of wild type β-catenin interaction” value (shortened to “Interaction With APC-15, share”) in assay [2] was “— (Interactions marked by — correspond to 60–100% of the wild type interaction)”. The “interaction with LEF-1/TCF-4” value with LEF-1 (β-catenin mutation, in words) was “blocking the interaction; also recorded: no interaction with LEF-1/TCF-4”. The “Interaction With Conductin, share of wild type β-catenin interaction” value (from here on “Interaction With Conductin, share”) in the assay with conductin was “— (Interactions marked by — correspond to 60–100% of the wild type interaction)”. Besides, the “Interaction With APC-20, share of wild type β-catenin interaction” value (“Interaction With APC-20, share” below) in assay [3] is given as “— (Interactions marked by — correspond to 60–100% of the wild type interaction)”.

B2: His 260: human β-catenin mutant, His 260 substituted by alanine (arm 3) (protein)
chain: LHNLSHHREGLLAIFKSGGIPALVKMLGSPVDSVLFYAITTLANLLLHQEGAKMAVRLAGGLQKMVALLNKTNVKFLAITTDCLQILAYGNQESKLIILASGGPQALVNIMRTYTYEKLLWTTSRVLKVLSVCSSNKPAIVEAGGMQALGLHLTDPSQRLVQNCLWTLRNLSDAATKQEGMEGLLGTLVQLLGSDDINVVTCAAGILSNLTCNNYKNKMMVCQVGGIEALVRTVLRAGDREDITEPAICALRHLTSRHQEAEMAQNAVRLHYGLPVVVKLLHPPSHWPLIKATVGLIRNLALCPANHAPLREQGAIPRLVQLLVRAHQDTQRRTSMGGTQQQFVEGVRMEEIVEGCTGALHILARDVHNRIVIRGLNTIPLFVQLLYSPIENIQRVAAGVLCELAQDKEAAEAIEAEGATAPLTELLHSRNEGVATYAAAVLFRMSEDKPQDYKKRLSVELTSSLFRTEPMAWNETADLGLDIGAQGEPLGYRQDDPSYRSFHSGGYGQDALGMDPMMEHEMGGHHPGADYPVDGLPDLGHAQDLMDGLPPGDSNQLAWFDTDL
modifications: left off: large carriers; small tags and cut ends
In the case of B2, the “Interaction With Conductin, share” value with conductin was determined as 10%. Besides, in assay [3], the “Interaction With APC-20, share” value came out at 40%.

B3: Lys 354: human β-catenin mutant, Lys 354 substituted by alanine (arm 6) (protein)
chain: LHNLSHHREGLLAIFKSGGIPALVKMLGSPVDSVLFYAITTLHNLLLHQEGAKMAVRLAGGLQKMVALLNKTNVKFLAITTDCLQILAYGNQESKLIILASGGPQALVNIMRTYTYEKLLWTTSRVLKVLSVCSSNAPAIVEAGGMQALGLHLTDPSQRLVQNCLWTLRNLSDAATKQEGMEGLLGTLVQLLGSDDINVVTCAAGILSNLTCNNYKNKMMVCQVGGIEALVRTVLRAGDREDITEPAICALRHLTSRHQEAEMAQNAVRLHYGLPVVVKLLHPPSHWPLIKATVGLIRNLALCPANHAPLREQGAIPRLVQLLVRAHQDTQRRTSMGGTQQQFVEGVRMEEIVEGCTGALHILARDVHNRIVIRGLNTIPLFVQLLYSPIENIQRVAAGVLCELAQDKEAAEAIEAEGATAPLTELLHSRNEGVATYAAAVLFRMSEDKPQDYKKRLSVELTSSLFRTEPMAWNETADLGLDIGAQGEPLGYRQDDPSYRSFHSGGYGQDALGMDPMMEHEMGGHHPGADYPVDGLPDLGHAQDLMDGLPPGDSNQLAWFDTDL
modifications: left off: large carriers; small tags and cut ends
In the case of B3, in assay [2], the “Interaction With APC-15, share” value is on record as 54%. The “Interaction With Conductin, share” value with conductin is given as 43%. Besides, the “Interaction With APC-20, share” value in assay [3] is listed as “— (Interactions marked by — correspond to 60–100% of the wild type interaction)”.

B4: Arg 274: human β-catenin mutant, Arg 274 substituted by alanine (arm 4) (protein)
chain: LHNLSHHREGLLAIFKSGGIPALVKMLGSPVDSVLFYAITTLHNLLLHQEGAKMAVALAGGLQKMVALLNKTNVKFLAITTDCLQILAYGNQESKLIILASGGPQALVNIMRTYTYEKLLWTTSRVLKVLSVCSSNKPAIVEAGGMQALGLHLTDPSQRLVQNCLWTLRNLSDAATKQEGMEGLLGTLVQLLGSDDINVVTCAAGILSNLTCNNYKNKMMVCQVGGIEALVRTVLRAGDREDITEPAICALRHLTSRHQEAEMAQNAVRLHYGLPVVVKLLHPPSHWPLIKATVGLIRNLALCPANHAPLREQGAIPRLVQLLVRAHQDTQRRTSMGGTQQQFVEGVRMEEIVEGCTGALHILARDVHNRIVIRGLNTIPLFVQLLYSPIENIQRVAAGVLCELAQDKEAAEAIEAEGATAPLTELLHSRNEGVATYAAAVLFRMSEDKPQDYKKRLSVELTSSLFRTEPMAWNETADLGLDIGAQGEPLGYRQDDPSYRSFHSGGYGQDALGMDPMMEHEMGGHHPGADYPVDGLPDLGHAQDLMDGLPPGDSNQLAWFDTDL
modifications: left off: large carriers; small tags and cut ends
On to B4, for which the “Interaction With APC-15, share” value in assay [2] is “— (Interactions marked by — correspond to 60–100% of the wild type interaction)”. For the same molecule, the “Interaction With LEF-1, share of wild type β-catenin interaction” value with LEF-1 (yeast 2-hybrid, alanine mutants) is listed as “— (Interactions marked by — correspond to 60–100% of the wild type interaction)”. For the same molecule, the “Interaction With Conductin, share” value in the assay with conductin amounted to 29%. Also, the interaction with conductin result with conductin (β-catenin mutation, in words) is on record as “no interaction with conductin”. In addition, the “Interaction With APC-20, share” value in assay [3] worked out at 40%.

B5: Lys 345: human β-catenin mutant, Lys 345 substituted by alanine (arm 5) (protein)
chain: LHNLSHHREGLLAIFKSGGIPALVKMLGSPVDSVLFYAITTLHNLLLHQEGAKMAVRLAGGLQKMVALLNKTNVKFLAITTDCLQILAYGNQESKLIILASGGPQALVNIMRTYTYEKLLWTTSRVLAVLSVCSSNKPAIVEAGGMQALGLHLTDPSQRLVQNCLWTLRNLSDAATKQEGMEGLLGTLVQLLGSDDINVVTCAAGILSNLTCNNYKNKMMVCQVGGIEALVRTVLRAGDREDITEPAICALRHLTSRHQEAEMAQNAVRLHYGLPVVVKLLHPPSHWPLIKATVGLIRNLALCPANHAPLREQGAIPRLVQLLVRAHQDTQRRTSMGGTQQQFVEGVRMEEIVEGCTGALHILARDVHNRIVIRGLNTIPLFVQLLYSPIENIQRVAAGVLCELAQDKEAAEAIEAEGATAPLTELLHSRNEGVATYAAAVLFRMSEDKPQDYKKRLSVELTSSLFRTEPMAWNETADLGLDIGAQGEPLGYRQDDPSYRSFHSGGYGQDALGMDPMMEHEMGGHHPGADYPVDGLPDLGHAQDLMDGLPPGDSNQLAWFDTDL
modifications: left off: large carriers; small tags and cut ends
Take B5: the “Interaction With APC-15, share” value in assay [2] is “— (Interactions marked by — correspond to 60–100% of the wild type interaction)”. The “Interaction With Conductin, share” value in the assay with conductin is listed as 22%. Further, the “Interaction With APC-20, share” value in assay [3] amounted to 0%.
